Measurements taken from the DeepSol protein solubility set.

Assay: soluble on expression in E. coli; label from the status in PepcDB or PDB records

Sequence	soluble on expression in E. coli
MKIAIIGLGLMGGSLGLCLKENKLISCVYGMDLSKENEKDALQLGLIHELIEFKDLALCDMIFVATPVNAIIEILQKLVDLPSNVTIIELGSTKRKIIESLPKNLIKQTLFAHPMTGTENSGPKAAFKELYKDAVCVLCDSEIADDLHQKRAVEIFSHLGMKIVFMDSKAHDHHAAIISHLPHVISFSLANFVMKEEDKRNIVHLAGGSFKGMSRIAKSSPQMWESIFLQNKDNLLSSIDFFQQELERCKQMIQLDKNDELREWMKQANTLREILMGHHHHHHSH	soluble
MKIAIVGSGNGAVTAAVDMVSKGHDVKLYCRNQSISKFQNAIEKGGFDFNNEGDERFVKFTDISDDMEYVLKDAEIVQVIIPSSYIEYYADVMAEHVTDNQLIFFNMAAAMGSIRFMNVLEDRHIETKPQLAEANTLTYGTRVDFENAAVDLSLNVRRIFFSTYDRSCLNDCYDKVSSIYDHLVKEESLIKTNLENGNPEVHPGPTLLNVGRIDYAGEFALYKEGITKHTVRLLHAIELERLNLGRRLGFELSTAKESRIERGYLERDKEDEPLNRLFNTSPVFSQIPGPNHVESRYLTEDIAYGLVLWSSLGRVIDVPTPNIDAVIVIASTILERDFFEEGLTVEEIGLDKLDLEKYLK	not soluble
MKIALINENSQASKNHIIYDSLKEATDKKGYQLFNYGMRGEEGESQLTYVQNGLMAAILLNTKAVDFVVTGCGTGVGAMLALNSFPGVVCGLAVDPTDAYLYSQINGGNALSIPYAKGFGWGAELTLKLMFERLFAEEMGGGYPRERVIPEQRNARILNEVKQITHNDLMTILKIIDQDFLKDTISGKYFQEYFFENCQDDEVAAYLKEVLAK	soluble
MKIDASRRGILTGCWRKASNGIRPPWSGDESHFLTHCTRCDACINACENNILQRGTGGYPSVNFKNNECSFCYACAQACPESLFSPRHTRAWDLQFTIGDACLAYQSVECRRCQDSCEPMAIIFRPTLSGIYQAQLNSQLCNGCGACAASCPVSAITAEYLHAH	not soluble
MKIDITDYNHADEILNPQLWKEIEETLLKMPLHVKASDQASKVGSLIFDPVGTNQYIKDELVPKHWKNNIPIPKRFDFLGTDIDFGKRDTLVEVQFSNYPFLLNNTVRSELFHKSNMDIDEEGMKVAIIITKGHMFPASNSSLYYEQAQNQLNSLAEYNVFDVPIRLVGLIEDFETDIDIVSTTYADKRYSRTITKRDTVKGKVIDTNTPNTRRRKRGTIVTY	soluble
MKIDYLTLFPEMFDGVLNHSIMKRAQENNKLQINTVNFRDYAINKHNQVDDYPYGGGQGMVLKPEPVFNAMEDLDVTEQTRVILMCPQGEPFSHQKAVELSKADHIVFICGHYEGYDERIRTHLVTDEISMGDYVLTGGELPAMTMTDAIVRLIPGVLGNEQSHQDDSFSDGLLEFPQYTRPREFKGLTVPDVLLSGNHANIDAWRHEQKLIRTYNKRPDLIEKYPLTNEDKQILERYKIGLKKG	not soluble
MKIEVWSDFVCPFCYMGKRRLEIALNEFEYKTDVEISFKSFELDPSAKKEYSENIHELIAKKYKISVEQAKASNDQIVLQAEAIGLNYNFNKLIPTNTFDAHRLSQYAKTKGKMNELSEKIFKAYFVDSLNISDYKVLADLAEEVGISRDESLRILESNQYNEEVREDEKNASKLGIDAVPYFVFDDKYAVSGAQPAEVFLEALYKIDKE	not soluble
MKIFFITSNPGKVREVANFLGTFGIEIVQLKHEYPEIQAEKLEDVVDFGISWLKGKVPQPFMIEDSGLFIESLKGFPGVYSSYVYRTIGLEGILKLMEGAEDRRAYFKSVIGFYIDGKAYKFSGVTWGRISNEKRGTHGFGYDPIFIPEGSEKTFAEMTIEEKNALSHRGKALKAFFEWLKVNLKY	soluble
MKIGIIGAGFVARAIAKLALQNGHQVMLSNSRDPQSLFSLRPMIGCDIGTATQAALFGDIIVIAVPFTAIDKLPEQALQGKSVIDAVNYYTERDGKVAALDTRSTTTSELLAGYLPGAKITKAFNAITMTQLERDGLPAGSAHRRALPLAGDHEQEKTIVAELYDAFGFDVVDAGKLSEGWRFERNMPSYCVRMTKAELTTALALSSRLEHHHHHH	soluble
MKIIITGEPGVGKTTLVKKIVERLGKRAIGFWTEEVRDPETKKRTGFRIITTEGKKKIFSSKFFTSKKLVGSYGVNVQYFEELAIPILERAYREAKKDRRKVIIIDEIGKMELFSKKFRDLVRQIMHDPNVNVVATIPIRDVHPLVKEIRRLPGAVLIELTPENRDVILEDILSLLER	soluble
MKIINLQFPNKYSAKKKEFVLAMGYFDGLHLGHRAVIQQAKRIADKQHLKLALLTYSQSPAGFYVNDPVLKVPILPFRQKMQMLEKLGVDTIFLIDYNLTFGSQSPEDYVDNYLAKLGASVVVAGFDHTYGSLKDKADMKHLPRYANGRFEVYTVRECSDYFGKISSTRIRRLLSEGDLQAVNELLGYQFQTVGFVVHGNQIGRRIGFPTANQALEEKQLLPKSGVYAVRTKIVTGPLAGRSFNGMASIGRNETFGSDNPITIEINLFDFSADVYDEEIIVYWISFLREQVKYANAEALIDQLKQDRIDSLDLLKEIPKSKNYS	not soluble
MKIKLEHGAGGELMEELIRDVILKNLTLNSAGGIGLEALDDGATIPFEGKHLVFTIDGHTVRPLFFPGGDIGRLAVSGTVNDLAVMGAKPLALASSLIIGEGFDSDKLEEILKSMNRTAKEVPVPIITGDTKVVEDNIEIFVITAGIGIAEKPISDAGAKVGDLVLVNGTIGDHGIALMSHREGISFETELKSDVAPIWDVVKTVADAIGWENIHAMKDPTRGGLSNALNEMARKADVGILVRESDIPIRPEVKAAGDMLGISPYDVANEGKVIMVVDREYAEDALEAMRKTEKGKDAAIIGEIIKDYPGKVILETGIGGRRFLEPPIGDPVPRVC	soluble
MKIMAICGSGLGSSFMVEMNIKKVLKKLNIDAEVEHSDLSSATPGAADLFVMAKDIAASASVPESQLVVINNIIDINELETQLRAWFAKQ	not soluble
MKINIRDSTMVRPATETPITNLWNSNVDLVIPRFHTPSVYFYRPTGASNFFDPQVMKEALSKALVPFYPMAGRLKRDDDGRIEIDCNGAGVLFVVADTPSVIDDFGDFAPTLNLRQLIPEVDHSAGIHSFPLLVLQVTFFKCGGASLGVGMQHHAADGFSGLHFINTWSDMARGLDLTIPPFIDRTLLRARDPPQPAFHHVEYQPAPSMKIPLDPSKSGPENTTVSIFKLTRDQLVALKAKSKEDGNTVSYSSYEMLAGHVWRSVGKARGLPNDQETKLYIATDGRSRLRPQLPPGYFGNVIFTATPLAVAGDLLSKPTWYAAGQIHDFLVRMDDNYLRSALDYLEMQPDLSALVRGAHTYKCPNLGITSWVRLPIYDADFGWGRPIFMGPGGIPYEGLSFVLPSPTNDGSLSVAIALQSEHMKLFEKFLFEI	soluble
MKINYQELANNIKLWAKELGFQKVGICDVDLSQHEAALEQWLEAGYHGSMDWMARHGVMRARPDELHPGTIRVISARMDYLPPKAGFASNLKDPNQAYISRYALGRDYHKLIRNQLKKLGQKIEEEVEQLGYRPFVDSAPILERPLAEKAGLGWTGKHSLLLDKNAGSWFFLGELLVDIPLPVDTPVENQCGKCTACISSCPTNAILENGVIDARRCISYLTIENSGIIPEEFRSLMGNRIYGCDDCQLVCPWNREAEITQQADFHRRSSLGNSDLISLFSWDESTFLKNMEGSAIRRIGHIQWLRNLSIAMGNAPHSEAIISALQDRLGLDENLDIHIQWAIKQQSLVITSNRKEQRLIRIIEKGLPRDA	not soluble
MKIQLHKWPKSVIDRLDLVFLDAPFPCQGKSDVEGIFDPPYYEWFQFNKEFTEYTNFEKCLEYLEDRMIKLGPFDGLIGFSQGAILSGGLPGLQAKGIAFQKVPKIKFVIIIGGAKLKSAKLAENAYSSSLETLSLHFLGETDFLKPYGTQLIESYKNPVVVHHPKGHTVPRLDEKSLEKVTAFIDTLEHLVMEEDKNGEENTSKPTK	soluble
MKIRALLLALGMATVLTGCQNMDSNGLLSSGAEAFQAYTLSDAQVKALSDQSCQELDSKAKIAPASSEYTKRLAKIAAALGDNINGQPVNYKVYETKDVNAFAMANGCIRVYSGLMDMMTDNEVEAVIGHEMGHVALGHVKKGMQVALGTNAVRVAAASAGGVVGSLSQSQLGDLGEKLVNSQFSQRQESEADDYSYDLLRKRGISPAGLATSFEKLAKLEAGRQSSMFDDHPASAARAQHVRDRMSADGIKLEHHHHHH	soluble
MKISLVTVTFNSAKTLCDTIHSVLSQSYTNIEYIIVDGLSNDETVTLIKEYEPLFQGRLKWISEKDKGLYDAMNKGIRMSTGDIVGIINSDDFYHRGDVLEKVAESFEAGETEAIYGDVRFVNPDNLDRTVRYYSSKRFVPSLFRFGFMPAHPTFFTYRKYFDQFGYYKTNYKIAADYELLVRFLYVHRLKSKYLPLDFMKMRTGGASTASIKSNILLNKEIVRACKENGIWTCYPLLLLKYLVKVFELIFIKKLEHHHHHH	soluble
MKISTKGRYGLTIMIELAKKYGDRPISLRSIAKANNLSEHYLEQLVTPLRNAGLVKSIRGAYGGYVLAEHPAKITAGDILRVLEGPLTPVEELEEEEPAKRELWIRIRDAVEEVLDSTTLEDLAKYSDGDEGAYMFYI	not soluble
MKKFDVAIVGGGLAGLTASIYLAKAGRKVIVLEKSSRFGGRGMTINKNGICMNLGAHALYRGGAAFLTFNELGMNLPGGIPSTKAHGIWKGDIFTIPTDFRSILSTPLLSWSAKVQFSRLMILLGNLDVGEVPKMSLTTWAEHEIKDPMVRNIFYALCRTTTYTFAPTIQLASSVLKQIQLSIKEGVFYVDGGWETIITKLRDIANHVGVQFLSKKHVLEIEHYEDKQRIYCFDDEVFEVGTVIVTTPPKEACNIIKGAEGTSLQRWSEQSIPVTVTALDIGLRRLPNPTHQFALGLDQPIFFTNQSRAAKLSDDGSIAVSLIKYQNPALEMKHIHEDKGQLESTMDLLHPNWKREVVAQQYLPTIKVVYDFPHINRVETPGPNIPEMPGVYVAGDWAGHDEILADAAVASGKRAALHILKQLESEAVHHGNGAIILEHHHHHH	not soluble
MKKIAIIGGGIIGMTLANYLDPQKFDITVYDEGLGQATKASAGIISPWLSKRRNKKWYQLAREGAALFPKLVKDFQLTEDIYRQSGTVILRPAAALADLAHLAEERKQTAPEIGEITMLSAVQTAKFLPLLKETPSLFISGGGRLDGPAYLNHLQKRAEAKGVTFCSQRAHFRQLNQGWEIVTNSEKKSVDFLALTPGPHLKELLTTLNLSVDIRPQKGQLLVFETPFTNSQQWPVAMLDGEADLIPFNQGKILLGATHENEQAWDLEETVSAFQQLTSGTAPFLKEAEQLFKQPMHYRVGTRAYTSDFAPFFGPLPEMPHLVVASGLGSSGLTTGPFIGYQLAEYFNTGAFKGELYQKPLSQYVKNNPSL	not soluble
MKKIAIIGGGIIGMTLANYLDPQKFDITVYDEGLGQATKASAGIISPWLSKRRNKKWYQLAREGAALFPKLVKDFQLTEDIYRQSGTVILRPAAALADLAHLAEERKQTAPEIGEITMLSAVQTAKFLPLLKETPSLFISGGGRLDGPAYLNHLQKRAEAKGVTFCSQRAHFRQLNQGWEIVTNSEKKSVDFLALTPGPHLKELLTTLNLSVDIRPQKGQLLVFETPFTNSQQWPVAMLDGEADLIPFNQGKILLGATHENEQAWDLEETVSAFQQLTSGTAPFLKEAEQLFKQPMHYRVGTRAYTSDFAPFFGPLPEMPHLVVASGLGSSGLTTGPFIGYQLAEYFNTGAFKGELYQKPLSQYVKNNPSLLEHHHHHH	soluble
MKKIEVDLVRTKVYNLLKEMILNHELKLGEKLNVRELSEKLGISFTPVRDALLQLATEGLVKVVPRVGFFVTDVDEKFIRETIETRIMMEVFCLENYFDKIAGSEELLEIKGEIDDVEKSAKREIFDDSDERLHKLFIRASGNELIISLYEKIWDRIDLVRHLNERYVVSNREHKELIERIISGDKEGAIEKLKEHLKNVEAETIKNLYTYERS	soluble
